Molecular target: the molecule itself
Experiment: cryo-EM structure

B1: FliF in the native flagellar basal body (native MS ring) (natural protein)
chain: MSATASTATQPKPLEWLNRLRANPRIPLIVAGSAAVAIVVAMVLWAKTPDYRTLFSNLSDQDGGAIVAQLTQMNIPYRFANGSGAIEVPADKVHELRLRLAQQGLPKGGAVGFELLDQEKFGISQFSEQVNYQRALEGELARTIETLGPVKSARVHLAMPKPSLFVREQKSPSASVTVTLEPGRALDEGQISAVVHLVSSAVAGLPPGNVTLVDQSGHLLTQSNTSGRDLNDAQLKFANDVESRIQRRIEAILSPIVGNGNVHAQVTAQLDFANKEQTEEHYSPNGDASKATLRSRQLNISEQVGAGYPGGVPGALSNQPAPPNEAPIATPPTNQQNAQNTPQTSTSTNSNSAGPRSTQRNETSNYEVDRTIRHTKMNVGDIERLSVAVVVNYKTLADGKPLPLTADQMKQIEDLTREAMGFSDKRGDTLNVVNSPFSAVDNTGGELPFWQQQSFIDQLLAAGRWLLVLVVAWILWRKAVRPQLTRRVEEAKAAQEQAQVRQETEEAVEVRLSKDEQLQQRRANQRLGAEVMSQRIREMSDNDPRVVALVIRQWMSNDHE
  stoichiometry N: 34

From publication doi:10.1101/2020.10.11.334888 (bioRxiv, 2020)
